Assay results published in US20160053025A1 (SAMSUNG ELECTRONICS, published 2016).

B1: FLAG-tagged hAng-2 (ligand)
chain: YNNFRKSMDSIGKKQYQVQHGSCSYTFLLPEMDNCRSSSSPYVSNAVQRDAPLEYDDSVQRLQVLENIMENNTQWLMKLENYIQDNMKKEMVEIQQNAVQNQTAVMIEIGTNLLNQTAEQTRKLTDVEAQVLNQTTRLELQLLEHSLSTNKLEKQILDQTSEINKLQDKNSFLEKKVLAMEDKHIIQLQSIKEEKDQLQVLVSKQNSIIEELEKKIVTATVNNSVLQKQQHDLMETVNNLLTMMSTSNSAKDPTVAKEEQISFRDCAEVFKSGHTTNGIYTLTFPNSTEEIKAYCDMEAGGGGWTIIQRREDGSVDFQRTWKEYKVGFGNPSGEYWLGNEFVSQLTNQQRYVLKIHLKDWEGNEAYSLYEHFYLSSEELNYRIHLKGLTGTAGKISSISQPGNDFSTKDGDNDKCICKCSQMLTGGWWFDACGPSNLNGMYYPQRQNTNKFNGIKWYYWKGSGYSLKATTMMIRPADF
notes: not shown: FLAG tag
B2: Ang2 protein (R&D systems) (ligand)
chain: B1 chain
notes: Ang2 as used in the hybridoma screen, the HUVEC assays and the complex ELISA; also called human Ang2 protein; Human Ang-2 protein
B3: 4H10 (antibody, V domains shown)
VH: EVQLLESGGGLVQPGGSLRLSCAASGFTFSSYDMSWVRQAPGKGLEWVSLISPDSSSIYYADSVKGRFTISRDNSKNTLYLQMNSLRAEDTAVYYCAKDLISFWRGGFDYWGQGTLVTVSS
VL: QSVLTQPPSASGTPGQRVTISCSGSSSNIGSNYVNWYQQLPGTAPKLLIYADSNRPSGVPDRFSGSKSGTSASLAISGLRSEDEADYYCGSWDYSLSGYVFGGGTKLTVLG
notes: also called anti-Ang2 antibody 4H10

Legend:
BSA = target: T1, BSA (Bos taurus, UniProt P02769); assay: Complex ELISA: plate coated with BSA, FLAG-Ang2 0.25 ug/ml shown by 10D6 2 ug/ml and anti-mouse IgG-HRP, OD450
T1 construct: commercial preparation; also called Bovine serum albumin; Sigma
T1 sequence (P02769 25-607 limits assumed): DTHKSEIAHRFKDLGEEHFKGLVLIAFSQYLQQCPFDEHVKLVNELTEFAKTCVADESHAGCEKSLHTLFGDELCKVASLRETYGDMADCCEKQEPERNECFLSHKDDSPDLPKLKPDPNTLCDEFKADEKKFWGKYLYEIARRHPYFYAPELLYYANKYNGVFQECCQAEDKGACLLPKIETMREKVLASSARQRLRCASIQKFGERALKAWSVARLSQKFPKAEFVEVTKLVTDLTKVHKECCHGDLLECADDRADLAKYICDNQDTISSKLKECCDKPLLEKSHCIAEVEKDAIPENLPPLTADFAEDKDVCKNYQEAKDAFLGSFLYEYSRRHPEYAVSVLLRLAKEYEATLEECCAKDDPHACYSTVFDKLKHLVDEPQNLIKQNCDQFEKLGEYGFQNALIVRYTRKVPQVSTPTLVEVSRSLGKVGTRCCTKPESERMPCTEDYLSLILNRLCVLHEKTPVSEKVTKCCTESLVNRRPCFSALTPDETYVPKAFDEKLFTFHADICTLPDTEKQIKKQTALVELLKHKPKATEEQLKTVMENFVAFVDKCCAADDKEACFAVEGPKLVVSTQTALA
Description: (§1) A 96-well MaxiSorp™ flat-bottom plate (Nunc) was coated with 4 μg/ml of Tie2-Fc (R&D systems) or BSA (Sigma). Then, the plate was washed five times with 0.05% (v/v) Tween-20-containing PBS (Phosphate Buffer Saline) and blocked with 1% (v/v) BSA (Bovine serum albumin; Sigma)-containing PBS at a room temperature for 2 hours. 0.25 μg/ml of Ang2 and 2 μg/ml of 10D6 antibody were added to each well of the plate, which was allowed to react at a room temperature for 2 hours and then washed five times with PBST. After that, an anti-mouse IgG antibody (Sigma) conjugated with HRP diluted in 1% (v/v) BSA-containing PBS at a ratio of 1:5,000 (v/v) was added in an amount of 100 ul to each well to react at a room temperature for 1 hour and then, the plate was washed five times with PBST. Lastly, 100 ul (microliter) of TMB substrate (Cell Signaling) was added to each well of the plate to induce color development for 3 min. and then, the reaction was ceased by the addition of 100 ul of Stop solution (Cell Signaling) and OD450 values were measured on a plate reader (Molecular Devices).

hTie2-Fc (R&D Systems) = target: T2, hTie2-Fc (R&D Systems) (human, UniProt Q02763 23-745); assay: ELISA, Tie2-Fc coated, Ang2 and 10D6 added, detected with anti-mouse IgG-HRP
T2 construct: Bought fusion protein; also called hTie-2/Fc fusion protein; not shown: Fc of human IgG1
T2 sequence (Q02763 23-745 limits assumed): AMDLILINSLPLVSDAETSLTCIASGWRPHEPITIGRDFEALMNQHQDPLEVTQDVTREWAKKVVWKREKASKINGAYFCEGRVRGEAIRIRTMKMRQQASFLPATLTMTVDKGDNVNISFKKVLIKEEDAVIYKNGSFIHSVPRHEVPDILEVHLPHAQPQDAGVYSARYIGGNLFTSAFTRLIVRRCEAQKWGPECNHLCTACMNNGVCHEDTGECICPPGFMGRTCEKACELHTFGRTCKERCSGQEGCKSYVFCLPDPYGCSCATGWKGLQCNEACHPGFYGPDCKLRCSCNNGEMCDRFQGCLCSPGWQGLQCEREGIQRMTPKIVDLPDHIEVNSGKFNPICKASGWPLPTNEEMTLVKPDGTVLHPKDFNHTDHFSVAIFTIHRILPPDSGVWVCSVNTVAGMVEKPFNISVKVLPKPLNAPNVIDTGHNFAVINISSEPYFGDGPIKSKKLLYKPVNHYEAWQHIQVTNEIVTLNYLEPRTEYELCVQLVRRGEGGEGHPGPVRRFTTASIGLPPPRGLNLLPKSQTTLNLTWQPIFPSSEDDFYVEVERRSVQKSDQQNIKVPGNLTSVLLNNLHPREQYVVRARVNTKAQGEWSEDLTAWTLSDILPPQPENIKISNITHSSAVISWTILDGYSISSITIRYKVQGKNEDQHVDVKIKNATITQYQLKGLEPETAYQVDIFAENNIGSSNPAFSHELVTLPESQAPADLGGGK
Description: as §1

FLAG-tagged hAng-2 = target: B1; assay: Ang2-Tie2 competition ELISA: plate coated with hTie2-Fc, 400 ng/ml FLAG-tagged hAng-2 with antibody at varied concentration, detection with anti-FLAG-HRP; blocked ligand/receptor: hTie2-Fc
Description: More specifically, MaxiSorp™ flat-bottom plate (Nunc) of 96-well was coated with hTie2-Fc (R&D Systems) which is a protein bound with 4 μg/ml of Fc of human IgG1. After that, the plate was washed five times with 0.05% (v/v) Tween-20-containing PBS (phosphate buffer saline) and then blocked with 1% (v/v) BSA (bovine serum albumin; Sigma)-containing PBS at a room temperature for 2 hour.
For Ang2:Tie2 competition ELISA, each anti-Ang2 antibody obtained in Example 2 was placed at various concentrations of 400 nM-0.001 nM into each well coated with the hTie-2/Fc fusion protein along with 1% (v/v) BSA and 400 ng/ml of a FLAG-tagged hAng-2 and then, the plate was allowed to react at a room temperature for 2 hours and washed five times with PBST. After that, an anti-FLAG antibody (Sigma) conjugated with HRP diluted in 1% (v/v) BSA-containing PBS at a ratio of 1:5,000 (v/v) was added in an amount of 100 μl to each well to react at a room temperature for 1 hour and then, the plate was washed five times with PBST. Lastly, 100 μl of TMB substrate (Cell Signaling) was added to each well of the plate to induce color development for 3 min. and then, the reaction was ceased by the addition of 100 μl of Stop solution (Cell Signaling) and OD450 values were measured on a plate reader (Molecular Devices). […]

Binder: B1
- binding result (BSA): no binding (tested: 0.25 ug/ml)

Binder: B2
- binding result (hTie2-Fc (R&D Systems)): binds

Binder: B3
- IC50 (read off the curve) (FLAG-tagged hAng-2): ~0.2 nM
